Test: yeast display, Sf9 membrane polyspecificity reagent, FACS + sequencing; frameworks hold sequencing errors
Outline: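 Using colony PCR, genes from sorted yeast display clones were amplified, then sequenced on MiSeq at 2 × 250 and filtered by CDR length. The clones had been stained with 10% biotinylated, detergent-solubilized Sf9 membrane reagent for 1 hour at 4 °C and sorted by FACS into low and high (top ~1%) gates on anti-HA and streptavidin fluorescence. Polyreactivity labels come from the gate of origin.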

Row | Sequence | polyreactivity (PSR sort gate)
1 | QVQLVESGGGLVQAGGSLRLSCAASGFIIPGYAMGWYRQAPGKEREFVAAISRSGGSTYYADSVKGRFTISRDNAKNTVYLQMNSLKPEDSAVYYCATRARGYTGYDYWGQGTQVTVSS | high polyreactivity
2 | QVQLVESGGGLVQAGGSLRLSCAASGRIFTYNAMGWYRQAPGKERELVAASSRRGGTTYYADSVKGRFTISRDIAKITVYLQMNSLKPEDTAVYYCAARGQYRYSFGDYSWGQGTQVTVSS | high polyreactivity
3 | QVQLVESGGGLVQAGGSLRLSCAASGSIFSSYAMGWYRQAPGKERELVAAIDGSGGSTYADSVKGRFTISRDNAKITVYLQMNRLKPEDTAVYYCAVDSFLVYSAVRPYDYWGLGTQVTVSS | low polyreactivity
4 | QVQLVESGGGLVQAGGSLRLSCAASGRTFLTYAMGWYRQAPGKERELVAAITDGDSTNYADSVKGRFTISRDNAKNTVYLQMNSLKPEDTAVYYCNADSLAYRYYYWGKGTQVTVSS | high polyreactivity
5 | QVQLVESVGGLVQAGGSLRLSCAASGRTFVLNTMGWYRQAPGKERELVAAISKSGGSTYYADSVKGRFTISRDNAKNTVYLQMNSLKPEDTAVYYCAARTRQLEYNSWGEGTQVTVSS | high polyreactivity
6 | QVQLVESGGGLVQAGGSLRLSCAASGFIFAWYAMGWSRQAPGKERELVADISWGGGSTYYADSVKGRFTISRDNAKNTVYLQMNSLKPEDTAVYYCAATRPATYAAYDYWGQGTQVTVSS | high polyreactivity
7 | QVQLVESGGGLVQAGGSLRLSCAASGFTFVPYAMGWYRPAPGKERELLAAIDFDDATTYYADSVKGRFTISRDNAKNTVYLQMNSLKPEDTAVYYCAAVYYRRSYQGGYEYWGQGTQVTVSS | high polyreactivity
8 | QVQRVESGGGLVQAGGSLRLSCAASGRIFGKYAMGWYRQAPGKERELVAAIDGSGSTNYADSVKGRFTISRDNAKNTVYLLMNSLKPEDTAVYYCATDHAQKFRYRSPREYWGQGTQVTVSS | low polyreactivity
9 | QVQLVESGGGLVQAGGSLRLSCAASGFTLQQYTMGWYRQAPGKERELVAAISTSGVRTYYADSVKGRFTISRDNAKNTVYLQMNSLKPEDTAVYYCNAAWVYGIGWYSGYDYWGQGTQVTVSS | high polyreactivity
10 | QVQLVESGGGLVQAGGSLRLSCAASGIIFARNAMGWYRQAPGKERELVAAISSRSGSTYYADSVKGRFTISRDNAKNTVYVQMNSLKPEDTAVYYCNAVYAGRFGSHYWGQGTQVTVSS | high polyreactivity
11 | QVQLVESGGGLVQAGGSLRLSCAASGFIFYYYAMGWYRQAPGKERELVAAISTSGGSTYYADSVKGRFTISRDNAKNTVYLQMNSLKPEDTAVYYCAAKIIGRPRTTDRYDYWGQGTQVTVSS | low polyreactivity
12 | QVQLVESGGGLVQAGCSLRLSCAASGRTFYRYTMGWYRQAPGKERELVAAISISGGSTYYSDSVKGRFTISRDNEKNTFYLQMNSLKPEDSAVYYCAATSWGTYYRRLYYWGQATQVTVSS | high polyreactivity
13 | QVQLVESGGGLVQAGGSLRLSCAASGSIFDSYAMGWYRQAPGKERELVASISRRGGTTYYADSVKGRFTISRDNAKNTGYLQMNSLKPEDTAVYYCAKVGSLYQPSRYDYWGQGTQVTVTS | high polyreactivity
14 | QVQLVESGGGLVQAGGSLRLSCAASGFIFQRYAMGWYRPAPGKERELVAAISWSGGSTSYADSVKGRFTISRDNAKNPVYLQMYSLKPVDTAVYYCAARRPVYRKYGDRGRWYNYWGQGTQVTVSS | high polyreactivity
15 | QVQLVESGGGLVQAGGSLRLSCAASGSTFVGNAMGWYRQAPGKERELVAAISRGGGRTYYADSVKGRFTISRDNAKNTVYLQMNSLKPEDTAVYYCNADVYHRAWHLDYWGQGTQVTVSS | high polyreactivity
16 | QVQRVESGGVLVQAGGSLRLSCAASGITFYVYAMGWYRQAPGKERELVASITRSVGITSYADSVKGRFTISRDNSKNTVYLQMNSLKQEDSAVYYCAAERSNLHYNIQGVGYWGQGTQVTVSS | low polyreactivity
17 | QVQLVESGGGLVQAGASLRVSCAASGISLKYAMVWYRQAPGKERELVASISSRGTSTYYADSVKGRFTISRDNAKNTVYLQMNCLIPEDTAVYYCAARVRWWSPGGYWGQGTQVSVSS | high polyreactivity
18 | QVQLVESGAGIVQAGGSLRLSCAASGSILWHNAMGWYRQAPGKEREYVDAISARGTRTYYADSVKGRFTISRDNAKNTVYLQLKSLNPEDTAVYYCAARYWDDRARAEDYWGQVTQVTVSS | high polyreactivity
19 | QVQLVESGGGLVQAGGSLRLSCAASGSTFKLNAMGWYRQAPGKERELLASISTGASTNYADSVKGRFTISLDNAKNTVYVQMNSLNPEDTAVYYCAAQYPFAGYYITQYEYDYWGQGTQVTVSS | low polyreactivity
20 | QVQLVESGGGLVQAGGSLRLSCAASGRIISRYAMGWYRQAPGKERELVAAISRRGGSTYYADSVKGRFTISRDNAKKTVYLQMNSLKPEDTAVYYCNADTGNRGYDYWGQGTQVTVSS | high polyreactivity

Row | Sequence | polyreactivity (PSR sort gate)
21 | QVQLVESGGGLVQAGGSLRLSCAASGRTFYVYTMGWYRQAPGKERELVAAITSGGSTNYADSVKGRFTISRDNAKNTVYLQMNSLKPEDTAVYYCAARVSTVFKRYYYWGQGTQVTVSS | high polyreactivity
22 | QVQLVESGGGLVQAGGSLRLSCAASGFIFRYYAMGGYRQAPGKERELVAAISWSGVSTNYADSVKGRFTISRDNAKNTVYLQMNSLTPVDTAVYSCAADGTVRSLGRYYHWGQGTQVTVSS | low polyreactivity
23 | QVQLVESGGGLVQAGGSLRLICAASGYTFGGYAMGWYRQAPGKERVLVAAISTDGDSTFYADSVKGRFTISRDNAKNTVYLQMNSLKPEDTAVYYCAASVNTGSVTEYDYWGQGTQVTVSS | low polyreactivity
24 | QVQLVESGGGLVQAGGSLRLSCAASGRTFYGYTMGWYRQAPGKERELVAAISTGGGSTYYADSVKGRFTISRDNAKNTVYLQMNSLKPEDTEVYYCAARGGSYSFRRYNYWGQGTQVTVSS | high polyreactivity
25 | QVQHVESGGGLVQAGGSLRLSCAASGLIFRYYVKGWYRPAPGKERDLDAGITSSGGYTFYAESVKGRFTISRDNAKNTVYLQMNSLKPDDTAVYYCAARRPYAYARSSRYDYWGQGTQVSVSS | high polyreactivity
26 | QVQLVESGGGLVQAGGSLRLSCAASGRNLLGNAMGGYRQAPGKEREFVAAISYRGGSTYYADSVKGRFTISRDNEKNTVYLQMNSLKPVDNAVPYCAASSLKYSRFDYGGQGTQVTVSS | low polyreactivity
27 | QVQLGESGGGLVQAGGSLRLSCAASGRIFYKNTMGWYRQAPGKERELVAAISWRGGSTYYADSVKGRFTISRDNAKNTVYLQMNSLKPEDTAVYYCNADIWAYKYDYWGQGTQVTVSS | high polyreactivity
28 | QVQLVESGGGLVQAGGSLRLSCAASGIIFRDYDMGWYRQAPGKERELVAAITWDGGSTYYADSVKGRFTISRDNAKNTVYLQMNSLTPEDTAVYYCAADSRYHYYVGYYYWGQGTQVTVSS | high polyreactivity
29 | QVQLVESGAGLVQAGGSLRLSCAASGRTFNFYTMGWYRQAPGKERELVAAIDASGGRTYYADSVKGRFTISRDNAKNTVYLQMNSLKPEDTAVYYCAKYPRYSYVGYGYWGQGTQVTVSS | high polyreactivity
30 | QVQLVESGGGLVLAGGSLRLSCAASGHIFFYYTMGWYRQSPGKERELVAGITIGGSTNYADSVKGLFTISRDNAKNTVYLQMISLKPEDTAVYYCNVVKYVYIYSYWEYYYWGQGTQVTVSS | low polyreactivity
31 | QVQLVESGGGFVQAGGSLRLSCAASGSTFRYYAMGWYRQAPGTEREFVAAISWSGSSTYYADSVKGRFTISRDNAKNTVYLQMNSLKPEDTAVYYCAARYRYYGYDYWGQGTQVTVSS | high polyreactivity
32 | QVQLVESGGGLVQEGGSLRLSCAASGSTFSYNAMGWYRQAPGKERELVAAITSGSSTNYADSVKGRFTISRDNAKNTVYLQMNSLKPEDTAVYYCAADGYQDKYYWLETWVGYWGQGTQVTVSS | low polyreactivity
33 | QVQLVESGGALVQAGGSLRLSCDASGSTLWDYAMGWYRQAPRKERELVAASTQSTGDTHYADSVKGRFTLSRDNAKNTVYFQMNSLKPEDTAVYYCAADSYLSVYDPYGYWGQGTQVTVSS | low polyreactivity
34 | QVQLVESGGGLVQAGGSLRLSCAASGSIFRYYAMGWYRQAPGKERELVARISRNAGRTYYADSVKGRFTISRDNAKNTVYLQMNSLKPEDTAVYYCAADGSKPYAMDYWGQGTQVTVSS | high polyreactivity
35 | QVQLVESGGGLVQAGGSLRLSCAASGRILVLNAMGWYRQAPGKERELVADITSGGSTYYADSVKGRFTISRDNAKNTVYLQMNSLKPEDTAVYYCAADWNTYPDYQQSYFVSYEYNYWGQGTQVTVSS | low polyreactivity
36 | QVQLVESGGGLVQAGGSLRLSCAASGSTFTYNAMGWYRQAPGKERELVAAISWSGGRTYYADSVKGRFTISRDNATNTVYLQMNSLKPEDTAVYSCAAKYRYSTYSFPYDYWGQGTQVTVSS | high polyreactivity
37 | QVQLVESGGGLVQAGVSLRLSCAASGSIFSYNAMGWYRQAPGKERELVAAISRCSGSTYYADSVKGRFTISRDIAKNTVYLQMNSLKPEDTAVYYCAGRPKTIPSYYLGYHVRFDYWGQGTQVTVSS | low polyreactivity
38 | QVQLVESGGGLVQAGGSLRLSCAASGFTFVRYAMGWYRQAPGKERELVAVISRSGGSTNYADSVKGRFTISRDNAKNTVYLQMNSLKPEDTAVYYCAASLQYRRLVKGGDYWGQGTQVTVSW | high polyreactivity
39 | QVQLVESGGGLVQAGGSLRLSCAASGLIFTRNAMGWYRQAPGKERELVATITWSGGRTYYADSVKGRFTISRDNAKNTVYLQMNSLKPEDTAVYYCAAASGPLTYTFFRNDYWGQGTQVTVSS | low polyreactivity
40 | QVQLVESGGGLVQAGGSLRLSCAASGFTFLAYAMGWYRQAPGKERELVAAISRSGGRTYYADSVKGRFTISRDNAKNTVYLQMNSLNPEDTAVYYCAAPPRANLFDYWGQGTQVTVSS | high polyreactivity

From the nanobody polyreactivity screen of Harvey et al. (2022)
